# Assay results: article PMC10127577
# Key:
# [1] = target: cleaved, mature CDTb (from limited trypsinization of proCDTb) (Clostridioides difficile); experiment: SEC; CDTb oligomerization assay: 500 μg proCDTb at 1 mg/mL, untreated or with trypsin 1:20 (wt/wt) at 37°C for 20 min, with buffer or 2-fold molar excess of Fab; Superdex 200 Increase 10/300 GL in 20 mM Tris pH 8, 100 mM NaCl, 6 mM CaCl2
# [2] = target: cleaved, mature CDTb (from limited trypsinization of proCDTb) (Clostridioides difficile); experiment: negative-stain electron microscopy
substance,measurement,setting,value
"cleaved, mature CDTb (from limited trypsinization of proCDTb) (natural protein)",percent of cleaved CDTb oligomerized,[1],5%
same,stoichiometry N,[2],14
